In this assay the target is HA-tagged MnPV L1_(SHORT), expressed in Mastomys-derived fibroblasts (Mastomys natalensis papillomavirus (MnPV)). Put plainly: SDS-PAGE and western blot of high-MW (multimer) bands; lysates of transfected MaFi132 cells in 1.25x Laemmli buffer (2.5% SDS, 2.5% beta-mercaptoethanol), 95 C 5 min; 8% SDS-PAGE; detected with mAb 2D11, Mastomys serum mix and anti-HA.

“And” between values parts separate entries of the source, which are not always exact repeats. Identical values can stand only once.

Stoichiometry N data for one substance are collected here from publication PMC7402679.

As usually defined, the stoichiometry N is a count of units in the complex or per binding partner. “HA-tagged MnPV L1_(SHORT), expressed in Mastomys-derived fibroblasts (natural protein)”: the stoichiometry N was 2 and 3.
